Data from article PMC2614558.

Key:
[1] = target: cytoplasmic (C-terminal, soluble) domain of the putative zinc transporter CzrB from Thermus thermophilus, His-tag-free (Thermus thermophilus); experiment: small-angle X-ray scattering
[2] = target: cytoplasmic (C-terminal, soluble) domain of the putative zinc transporter CzrB from Thermus thermophilus, His-tag-free (Thermus thermophilus); experiment: small-angle X-ray scattering; remark: listed apart in the source
[3] = target: cytoplasmic (C-terminal, soluble) domain of the putative zinc transporter CzrB from Thermus thermophilus, His-tag-free (Thermus thermophilus); experiment: SEC

Measured: stoichiometry N

cytoplasmic (C-terminal, soluble) domain of the putative zinc transporter CzrB from Thermus thermophilus, His-tag-free (domain or fragment)
2: all assays above
